Measured values published in paper PMC8025885, “Cryo-EM of kinesin-binding protein: challenges and opportunities from protein-surface interactions” (Acta Crystallographica. Section D, Structural Biology, 2021).

T1: kinesin-binding protein (human, UniProt Q96EK5 1-621)
T1 construct: The 6xHis tag is thrombin-cleavable; also called KBP; KBP-full; source: E. coli Rosetta2, purified (IMAC, SEC)
T1 sequence (looked up): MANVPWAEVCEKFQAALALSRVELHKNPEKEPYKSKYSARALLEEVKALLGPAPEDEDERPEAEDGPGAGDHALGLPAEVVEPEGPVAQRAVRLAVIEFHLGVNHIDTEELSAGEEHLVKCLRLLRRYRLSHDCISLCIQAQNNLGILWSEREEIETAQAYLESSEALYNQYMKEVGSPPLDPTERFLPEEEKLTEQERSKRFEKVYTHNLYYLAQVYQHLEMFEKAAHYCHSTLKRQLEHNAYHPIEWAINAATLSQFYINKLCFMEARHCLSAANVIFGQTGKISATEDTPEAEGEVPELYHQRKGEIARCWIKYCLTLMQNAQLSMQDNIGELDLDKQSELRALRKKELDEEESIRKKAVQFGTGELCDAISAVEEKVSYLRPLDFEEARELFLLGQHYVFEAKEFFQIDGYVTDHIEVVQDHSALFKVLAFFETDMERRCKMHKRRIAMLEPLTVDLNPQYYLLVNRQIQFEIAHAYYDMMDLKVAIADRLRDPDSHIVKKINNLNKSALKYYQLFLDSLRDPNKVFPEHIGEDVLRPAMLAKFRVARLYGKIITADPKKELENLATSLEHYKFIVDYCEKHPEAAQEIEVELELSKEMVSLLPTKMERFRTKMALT


How the values were obtained:
kinesin-binding protein [1] = biological target: T1, kinesin-binding protein; assay: pull-down; complex purified via IMAC using the 6xHis tag on the kinesin construct after incubation with a tenfold excess of KBP; SDS-PAGE of the purified complex; conditions: both partners purified
kinesin-binding protein [2] = biological target: T1, kinesin-binding protein; assay: cryo-EM structure; rigid KBP-full–KIF15_MD6S subset of particles from GO-coated holey gold grids; 6.9 Å reconstruction; conditions: both partners purified

binding result (kinesin-binding protein [1])	binding result (kinesin-binding protein [2])	Binder
binds		human KIF1A motor domain and neck linker construct (domain or fragment, UniProt Q12756 1-362, looked up, kinesin-3 KIF1A, human, motor domain and neck linker, residues 1-362; The HaloTag is TEV protease-cleavable; the printed size of the motor domain (about 40 kDa); source: E. coli BL21-Gold (DE3), purified (IMAC, SEC); not shown: His6, C-terminal, kept) MAGASVKVAVRVRPFNSREMSRDSKCIIQMSGSTTTIVNPKQPKETPKSFSFDYSYWSHTSPEDINYASQKQVYRDIGEEMLQHAFEGYNVCIFAYGQTGAGKSYTMMGKQEKDQQGIIPQLCEDLFSRINDTTNDNMSYSVEVSYMEIYCERVRDLLNPKNKGNLRVREHPLLGPYVEDLSKLAVTSYNDIQDLMDSGNKARTVAATNMNETSSRSHAVFNIIFTQKRHDAETNITTEKVSKISLVDLAGSERADSTGAKGTRLKEGANINKSLTTLGKVISALAEMDSGPNKNKKKKKTDFIPYRDSVLTWLLRENLGGNSRTAMVAALSPADINYDETLSTLRYADRAKQIRCNAVINE
	binds	cysteine-light human KIF15 motor domain and neck linker construct (domain or fragment, UniProt Q9NS87 1-375, looked up, kinesin-12 KIF15, human, motor domain and neck linker, residues 1-375, six of eight cysteines mutated to serine and two cysteines introduced; also called KIF15_MD6S; source: pET-21a vector, expressed and purified as described previously (Rosenfeld et al., 2005); not shown: His6, C-terminal, kept) MAPGSKTELRSVTNGQSNQPSNEGDAIKVFVRIRPPAERSGSADGEQNLSLSVLSSTSLRLHSNPEPKTFTFDHVADVDTTQESVFATVAKSIVESCMSGYNGTIFAYGQTGSGKTFTMMGPSESDNFSHNLRGVIPRSFEYLFSLIDREKEKAGAGKSFLSKCSFIEIYNEQIYDLLDSASAGLYLREHIKKGVFVVGAVEQVVTSAAEAYQVLSGGWRNRRVASTSMNRESSRSHAVFTITIESMEKCNEIVNIRTSLLNLVDLAGSERQKDTHAEGMRLKEAGNINRSLSSLGQVITALVDVGNGKQRHVSYRDSKLTFLLRDSLGGNAKTAIIANVHPGSRSFGETLSTLNFAQRAKLIKNKAVVNEDTQC
